For 4 molecules, Kd results are on record in publication PMC5836831, “Candidate SNP markers of reproductive potential are predicted by a significant change in the affinity of TATA-binding protein for human gene promoters”.

Series [1] has as its target T1, TATA-binding protein (TBP) (human, UniProt P20226 1-339). Kind of series: EMSA. The settings on record: EMSA: 20 mM HEPES-KOH pH 7.6, 5 mM MgCl2, 70 mM KCl, 1 mM EDTA, 100 ug/ml BSA, 0.01% NP-40, 5% glycerol, 25 C, 0.3 nM TBP titrated with ODN; stopped-flow: ….
The target in series [2] is T1, TATA-binding protein (TBP). Kind of series: stopped-flow fluorescence (FRET); EMSA: 20 mM HEPES-KOH pH 7.6, 5 mM MgCl2, 70 mM KCl, 1 mM EDTA, 100 ug/ml BSA, 0.01% NP-40, 5% glycerol, 25 C, 0.3 nM TBP titrated with ODN; stopped-flow: 0.1 uM ODN, 0.1-1.0 uM TBP, buffer not stated. To be noted: protein: recombinant; label: 5'-TAMRA and 5'-FAM; blunt.

T1 sequence (P20226 whole entry): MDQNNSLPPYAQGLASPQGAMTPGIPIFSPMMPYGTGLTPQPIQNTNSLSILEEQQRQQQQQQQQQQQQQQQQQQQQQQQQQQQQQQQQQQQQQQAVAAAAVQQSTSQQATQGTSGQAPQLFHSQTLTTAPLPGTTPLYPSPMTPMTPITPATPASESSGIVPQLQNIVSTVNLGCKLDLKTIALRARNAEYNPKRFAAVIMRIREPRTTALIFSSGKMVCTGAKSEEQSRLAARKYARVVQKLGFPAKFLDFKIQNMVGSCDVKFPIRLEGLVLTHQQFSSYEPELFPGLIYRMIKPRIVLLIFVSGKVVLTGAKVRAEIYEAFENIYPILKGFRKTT

As to “HBB promoter ODN, ancestral (rs33981098 a)”, the Kd in series [1] came to 44 nM.
HBB promoter ODN, minor (rs33981098) returned a Kd in series [1] of 90 nM.

B1: TPI1 promoter ODN, minor (rs1800202 g) (dsDNA)
DNA 1: CTCTATAGAAGTGGG
DNA 2: CCCACTTCTATAGAG
Take B1: the Kd in series [2] was 6 nM.

B2: TPI1 promoter ODN, ancestral (rs1800202 t) (dsDNA)
DNA 1: CTCTATATAAGTGGG
DNA 2: CCCACTTATATAGAG
On to B2, for which the Kd in series [2] amounted to 1 nM.

For orientation: Kd means the free concentration of one partner at which half of the binding sites on the other are occupied at equilibrium, for simple one-to-one binding.
